Reference: the supplement of paper PMC5998384

Legend:
HeLa Kyoto [1] = experiment: solubility in G1/S (NP-40 vs SDS abundance) (log2 ratio); higher = more soluble; conditions: cell cycle stage: G1/S
HeLa Kyoto [2] = experiment: thermal stability score vs G1/S (z-score of summed log2 fold changes over temperatures); higher = more thermally stable than in G1/S
HeLa Kyoto [3] = experiment: melting temperature (median over replicates), in situ; higher = more thermally stable
HeLa Kyoto [4] = experiment: solubility change mitosis vs G1/S (difference of NP-40 vs SDS log2 ratios) (log2 ratio difference); higher = more soluble in mitosis
[5] = cell cycle stage: early G1 (4.5 h after nocodazole release)
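For melting temperature (median over replicates), in situ in this document: HeLa Kyoto cells synchronized by double thymidine or nocodazole block, proteins quantified by TMT10plex mass spectrometry, three independent biological replicates.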
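For solubility change mitosis vs G1/S (difference of NP-40 vs SDS log2 ratios) in this document: synchronized HeLa Kyoto cells (double thymidine block for G1/S, nocodazole release for mitosis), protein amounts in NP-40 versus SDS lysates quantified by mass spectrometry, three biological replicates.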
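For solubility in G1/S (NP-40 vs SDS abundance) in this document: HeLa Kyoto cells arrested at G1/S by double thymidine block, proteins quantified by TMT10plex mass spectrometry in mild NP-40 versus SDS extracts, three biological replicates.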
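For thermal stability score vs G1/S (z-score of summed log2 fold changes over temperatures) in this document: synchronized HeLa Kyoto cells, proteins quantified by TMT10plex mass spectrometry, three biological replicates, mitosis taken 0.5 h after nocodazole release, G1/S directly after double thymidine block.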

In the case of “MLPSLQESMDGDEKELESSEEGGSAEERRLEPPSSSHYCLYSYRGSRLAQQRGDSEDGSPSGTNAETPSGDDFSLSLADTNLPSEVEPELRSFIAKRLSRGAVFEGLGNVASVELKIPGYRVGCYYCLFQNEKLLPETVTIDSERNPSEYVVCFLGGSEKGLELFRLELDKYIQGLKNNMNCEARGLESHIKSYLSSWFEDVVCPIQRVVLLFQEKLTFLLHAALSYTPVEVKESDEKTKRDINRFLSVASLQGLIHEGTMTSLCMAMTEEQHKSVVIDCSSSQPQFCNAGSNRFCEDWMQAFLNGAKGGNPFLFRQVLENFKLKAIQDTNNLKRFIRQAEMNHYALFKCYMFLKNCGSGDILLKIVKVEHEEMPEAKNVIAVLEEFMKEALDQSF [C17ORF75]”, the “solubility in G1/S (log2)” value (HeLa Kyoto [1]) is reported as 0.283, the thermal stability score (HeLa Kyoto [2]; [5]) is reported as -0.255 and the thermal stability score (HeLa Kyoto [2]; cell cycle stage: mitosis) is reported as -0.352. For the same sequence, the melting temperature (HeLa Kyoto [3]; cell cycle stage: G1/S) was 51.5 °C, the melting temperature (HeLa Kyoto [3]; cell cycle stage: mitosis) was 51.7 °C and the “solubility change mitosis (log2)” value (HeLa Kyoto [4]) was -0.159.
In the case of “MLPYTVNFKVSARTLTGALNAHNKAAVDWGWQGLIAYGCHSLVVVIDSITAQTLQVLEKHKADVVKVKWARENYHHNIGSPYCLRLASADVNGKIIVWDVAAGVAQCEIQEHAKPIQDVQWLWNQDASRDLLLAIHPPNYIVLWNADTGTKLWKKSYADNILSFSFDPFDPSHLTLLTSEGIVFISDFSPSKPPSGPGKKVYISSPHSSPAHNKLATATGAKKALNKVKILITQEKPSAEFITLNDCLQLAYLPSKRNHMLLLYPREILILDLEVNQTVGVIAIERTGVPFLQVIPCFQRDGLFCLHENGCITLRVRRSYNNIFTTSNEEPDPDPVQELTYDLRSQCDAIRVTKTVRPFSMVCCPVNENAAALVVSDGRVMIWELKSAVCNRNSRNSSSGVSPLYSPVSFCGIPVGVLQNKLPDLSLDNMIGQSAIAGEEHPRGSILREVHLKFLLTGLLSGLPAPQFAIRMCPPLTTKNIKMYQPLLAVGTSNGSVLVYHLTSGLLHKELSIHSCEVKGIEWTSLTSFLSFATSTPNNMGLVRNELQLVDLPTGRSIAFRGERGNDESAIEMIKVSHLKQYLAVVFRDKPLELWDVRTCTLLREMSKNFPTITALEWSPSHNLKSLRKKQLATREAMARQTVVSDTELSIVESSVISLLQEAESKSELSQNISAREHFVFTDIDGQVYHLTVEGNSVKDSARIPPDGSMGSITCIAWKGDTLVLGDMDGNLNFWDLKGRVSRGIPTHRSWVRKIRFAPGKGNQKLIAMYNDGAEVWDTKEVQMVSSLRSGRNVTFRILDVDWCTSDKVILASDDGCIRVLEMSMKSACFRMDEQELTEPVWCPYLLVPRASLALKAFLLHQPWNGQYSLDISHVDYPENEEIKNLLQEQLNSLSNDIKKLLLDPEFTLLQRCLLVSRLYGDESELHFWTVAAHYLHSLSQEKSASTTAPKEAAPRDKLSNPLDICYDVLCENAYFQKFQLERVNLQEVKRSTYDHTRKCTDQLLLLGQTDRAVQLLLETSADNQHYYCDSLKACLVTTVTSSGPSQSTIKLVATNMIANGKLAEGVQLLCLIDKAADACRYLQTYGEWNRAAWLAKVRLNPEECADVLRRWVDHLCSPQVNQKSKALLVLLSLGCFFSVAETLHSMRYFDRAALFVEACLKYGAFEVTEDTEKLITAIYADYARSLKNLGFKQGAVLFASKAGAAGKDLLNELESPKEEPIEE [WDR11]”, the “solubility in G1/S (log2)” value (HeLa Kyoto [1]) is reported as -0.123, the thermal stability score (HeLa Kyoto [2]; [5]) is reported as 1.39 and the thermal stability score (HeLa Kyoto [2]; cell cycle stage: mitosis) is reported as 0.377. The melting temperature (HeLa Kyoto [3]; cell cycle stage: G1/S) was 52.8 °C, the melting temperature (HeLa Kyoto [3]; cell cycle stage: mitosis) was 53.4 °C and the “solubility change mitosis (log2)” value (HeLa Kyoto [4]) was -0.106.
In the case of “MLRAGWLRGAAALALLLAARVVAAFEPITVGLAIGAASAITGYLSYNDIYCRFAECCREERPLNASALKLDLEEKLFGQHLATEVIFKALTGFRNNKNPKKPLTLSLHGWAGTGKNFVSQIVAENLHPKGLKSNFVHLFVSTLHFPHEQKIKLYQDQLQKWIRGNVSACANSVFIFDEMDKLHPGIIDAIKPFLDYYEQVDGVSYRKAIFIFLSNAGGDLITKTALDFWRAGRKREDIQLKDLEPVLSVGVFNNKHSGLWHSGLIDKNLIDYFIPFLPLEYRHVKMCVRAEMRARGSAIDEDIVTRVAEEMTFFPRDEKIYSDKGCKTVQSRLDFH [TOR1B]”, the “solubility in G1/S (log2)” value (HeLa Kyoto [1]) is reported as 0.349, the thermal stability score (HeLa Kyoto [2]; [5]) is reported as 2.27 and the thermal stability score (HeLa Kyoto [2]; cell cycle stage: mitosis) is reported as 5.78. For the same sequence, the melting temperature (HeLa Kyoto [3]; cell cycle stage: G1/S) was 53.7 °C, the melting temperature (HeLa Kyoto [3]; cell cycle stage: mitosis) was 53.9 °C and the “solubility change mitosis (log2)” value (HeLa Kyoto [4]) was -0.143.
With “MLRMRTAGWARGWCLGCCLLLPLSLSLAAAKQLLRYRLAEEGPADVRIGNVASDLGIVTGSGEVTFSLESGSEYLKIDNLTGELSTSERRIDREKLPQCQMIFDENECFLDFEVSVIGPSQSWVDLFEGQVIVLDINDNTPTFPSPVLTLTVEENRPVGTLYLLPTATDRDFGRNGIERYELLQEPGGGGSGGESRRAGAADSAPYPGGGGNGASGGGSGGSKRRLDASEGGGGTNPGGRSSVFELQVADTPDGEKQPQLIVKGALDREQRDSYELTLRVRDGGDPPRSSQAILRVLITDVNDNSPRFEKSVYEADLAENSAPGTPILQLRAADLDVGVNGQIEYVFGAATESVRRLLRLDETSGWLSVLHRIDREEVNQLRFTVMARDRGQPPKTDKATVVLNIKDENDNVPSIEIRKIGRIPLKDGVANVAEDVLVDTPIALVQVSDRDQGENGVVTCTVVGDVPFQLKPASDTEGDQNKKKYFLHTSTPLDYEATREFNVVIVAVDSGSPSLSSNNSLIVKVGDTNDNPPMFGQSVVEVYFPENNIPGERVATVLATDADSGKNAEIAYSLDSSVMGIFAIDPDSGDILVNTVLDREQTDRYEFKVNAKDKGIPVLQGSTTVIVQVADKNDNDPKFMQDVFTFYVKENLQPNSPVGMVTVMDADKGRNAEMSLYIEENNNIFSIENDTGTIYSTMSFDREHQTTYTFRVKAVDGGDPPRSATATVSLFVMDENDNAPTVTLPKNISYTLLPPSSNVRTVVATVLATDSDDGINADLNYSIVGGNPFKLFEIDPTSGVVSLVGKLTQKHYGLHRLVVQVNDSGQPSQSTTTLVHVFVNESVSNATAIDSQIARSLHIPLTQDIAGDPSYEISKQRLSIVIGVVAGIMTVILIILIVVMARYCRSKNKNGYEAGKKDHEDFFTPQQHDKSKKPKKDKKNKKSKQPLYSSIVTVEASKPNGQRYDSVNEKLSDSPSMGRYRSVNGGPGSPDLARHYKSSSPLPTVQLHPQSPTAGKKHQAVQDLPPANTFVGAGDNISIGSDHCSEYSCQTNNKYSKQMRLHPYITVFG [PCDH7]” the “solubility in G1/S (log2)” value (HeLa Kyoto [1]) was 0.215, the thermal stability score (HeLa Kyoto [2]; [5]) was -1.64 and the thermal stability score (HeLa Kyoto [2]; cell cycle stage: mitosis) was -1.07. For the same sequence, the melting temperature (HeLa Kyoto [3]; cell cycle stage: G1/S) was 55.1 °C, the melting temperature (HeLa Kyoto [3]; cell cycle stage: mitosis) was 53.4 °C and the “solubility change mitosis (log2)” value (HeLa Kyoto [4]) was -0.075.
For “MLRPAGLWRLCRRPWAARVPAENLGRREVTSGVSPRGSTSPRTLNIFDRDLKRKQKNWAARQPEPTKFDYLKEEVGSRIADRVYDIPRNFPLALDLGCGRGYIAQYLNKETIGKFFQADIAENALKNSSETEIPTVSVLADEEFLPFKENTFDLVVSSLSLHWVNDLPRALEQIHYILKPDGVFIGAMFGGDTLYELRCSLQLAETEREGGFSPHISPFTAVNDLGHLLGRAGFNTLTVDTDEIQVNYPGMFELMEDLQGMGESNCAWNRKALLHRDTMLAAAAVYREMYRNEDGSVPATYQIYYMIGWKYHESQARPAERGSATVSFGELGKINNLMPPGKKSQ [NDUFAF5]”, the “solubility in G1/S (log2)” value (HeLa Kyoto [1]) was 0.329, the thermal stability score (HeLa Kyoto [2]; [5]) was 0.357 and the thermal stability score (HeLa Kyoto [2]; cell cycle stage: mitosis) was 0.191. For the same sequence, the melting temperature (HeLa Kyoto [3]; cell cycle stage: G1/S) was 53.5 °C, the melting temperature (HeLa Kyoto [3]; cell cycle stage: mitosis) was 53.4 °C and the “solubility change mitosis (log2)” value (HeLa Kyoto [4]) was -0.0552.
With “MLRRGSQALRRFSTGRVYFKNKLKLALIGQSLFGQEVYSHLRKEGHRVVGVFTVPDKDGKADPLALAAEKDGTPVFKLPKWRVKGKTIKEVAEAYRSVGAELNVLPFCTQFIPMDIIDSPKHGSIIYHPSILPRHRGASAINWTLIMGDKKAGFSVFWADDGLDTGPILLQRSCDVEPNDTVDALYNRFLFPEGIKAMVEAVQLIADGKAPRIPQPEEGATYEGIQKKENAEISWDQSAEVLHNWIRGHDKVPGAWTEINGQMVTFYGSTLLNSSVPPGEPLEIKGAKKPGLVTKNGLVLFGNDGKALTVRNLQFEDGKMIPASQYFSTGETSVVELTAEEVKVAETIKVIWAGILSNVPIIEDSTDFFKSGASSMDVARLVEEIRQKCGGLQLQNEDVYMATKFEGFIQKVVRKLRGEDQEVELVVDYISKEVNEIMVKMPYQCFINGQFTDADDGKTYDTINPTDGSTICKVSYASLADVDKAVAAAKDAFENGEWGRMNARERGRLMYRLADLLEENQEELATIEALDSGAVYTLALKTHIGMSVQTFRYFAGWCDKIQGSTIPINQARPNRNLTFTKKEPLGVCAIIIPWNYPLMMLAWKSAACLAAGNTLVLKPAQVTPLTALKFAELSVKAGFPKGVINIIPGSGGIAGQRLSEHPDIRKLGFTGSTPIGKQIMKSCAVSNLKKVSLELGGKSPLIIFNDCELDKAVRMGMGAVFFNKGENCIAAGRLFVEESIHDEFVTRVVEEIKKMKIGDPLDRSTDHGPQNHKAHLEKLLQYCETGVKEGATLVYGGRQVQRPGFFMEPTVFTDVEDYMYLAKEESFGPIMVISKFQNGDIDGVLQRANSTEYGLASGVFTRDINKAMYVSEKLEAGTVFINTYNKTDVAAPFGGVKQSGFGKDLGEEALNEYLKTKTVTLEY [ALDH1L2]” the “solubility in G1/S (log2)” value (HeLa Kyoto [1]) was 0.0306, the thermal stability score (HeLa Kyoto [2]; [5]) was -0.0085 and the thermal stability score (HeLa Kyoto [2]; cell cycle stage: mitosis) was -0.149. For the same sequence, the melting temperature (HeLa Kyoto [3]; cell cycle stage: G1/S) was 51.6 °C, the melting temperature (HeLa Kyoto [3]; cell cycle stage: mitosis) was 51.2 °C and the “solubility change mitosis (log2)” value (HeLa Kyoto [4]) was -0.105.
In the case of “MLRSGPASGPSVPTGRAMPSRRVARPPAAPELGALGSPDLSSLSLAVSRSTDELEIIDEYIKENGFGLDGGQPGPGEGLPRLVSRGAASLSTVTLGPVAPPATPPPWGCPLGRLVSPAPGPGPQPHLVITEQPKQRGMRFRYECEGRSAGSILGESSTEASKTLPAIELRDCGGLREVEVTACLVWKDWPHRVHPHSLVGKDCTDGICRVRLRPHVSPRHSFNNLGIQCVRKKEIEAAIERKIQLGIDPYNAGSLKNHQEVDMNVVRICFQASYRDQQGQMRRMDPVLSEPVYDKKSTNTSELRICRINKESGPCTGGEELYLLCDKVQKEDISVVFSRASWEGRADFSQADVHRQIAIVFKTPPYEDLEIVEPVTVNVFLQRLTDGVCSEPLPFTYLPRDHDSYGVDKKRKRGMPDVLGELNSSDPHGIESKRRKKKPAILDHFLPNHGSGPFLPPSALLPDPDFFSGTVSLPGLEPPGGPDLLDDGFAYDPTAPTLFTMLDLLPPAPPHASAVVCSGGAGAVVGETPGPEPLTLDSYQAPGPGDGGTASLVGSNMFPNHYREAAFGGGLLSPGPEAT [RELB]”, the “solubility in G1/S (log2)” value (HeLa Kyoto [1]) is reported as -0.0253, the thermal stability score (HeLa Kyoto [2]; [5]) is reported as 0.0562 and the thermal stability score (HeLa Kyoto [2]; cell cycle stage: mitosis) is reported as 0.606. The melting temperature (HeLa Kyoto [3]; cell cycle stage: mitosis) was 50.1 °C and the “solubility change mitosis (log2)” value (HeLa Kyoto [4]) was -0.12.
